According to patent publication US20230406935A1 (F STAR THERAPEUTICS, published 2023):
Substitutions are numbered along the chain they refer to. Read-outs that look alike come from different tables or passages of the source.

B1: FS17-33-449AA/MSL109 mock mAb^2 (bispecific antibody, human IgG1, kappa, L234A L235A)
heavy: EEQVLESGGGLVKPGGSLRLSCAASGFTFSPYSVFWVRQAPGKGLEWVSSINSDSTYKYYADSVKGRFTISRDNAENSIFLQMNSLRAEDTAVYYCARDRSYYAFSSGSLSDYYYGLDVWGQGTTVIVSSASTKGPSVFPLAPSSKSTSGGTAALGCLVKDYFPEPVTVSWNSGALTSGVHTFPAVLQSSGLYSLSSVVTVPSSSLGTQTYICNVNHKPSNTKVDKKVEPKSCDKTHTCPPCPAPEAAGGPSVFLFPPKPKDTLMISRTPEVTCVVVDVSHEDPEVKFNWYVDGVEVHNAKTKPREEQYNSTYRVVSVLTVLHQDWLNGKEYKCKVSNKALPAPIEKTISKAKGQPREPQVYTLPPSRDETGYWVSLTCLVKGFYPSDIAVEWESNGEPQYWAKTTPPVLDSDGSFFLYSKLTVSNWRWQLDDVFSCSVMHEALHNHYTQKSLSLSPGK
light: DIVMTQSPLSLSVTPGEPASISCRSSQSLLHTNGYNYLDWYVQKPGQSPQLLIYLASNRASGVPDRFSGSGSGTDFTLKISRVETEDVGVYYCMQALQIPRTFGQGTKVEIKRTVAAPSVFIFPPSDEQLKSGTASVVCLLNNFYPREAKVQWKVDNALQSGNSQESVTEQDSKDSTYSLSSTLTLSKADYEKHKVYACEVTHQGLSSPVTKSFNRGEC
B2: FS17-33-451AA/MSL109 mock mAb^2 (bispecific antibody, human IgG1, kappa, L234A L235A)
heavy: B1 heavy with T371E
light: B1 light
notes: also called FS17-33-451AA/MSL109 (parent 2)
B3: FS17-33-488AA/MSL109 (bispecific antibody, human IgG1, kappa, L234A L235A)
heavy: B1 heavy with T371E, L410P, S415T, D432G, V434A, H445R
light: B1 light
B4: Fcab FS17-33-289 (designed binder)
chain: TCPPCPAPELLGGPSVFLFPPKPKDTLMISRTPEVTCVVVDVSHEDPEVKFNWYVDGVEVHNAKTKPREEQYNSTYRVVSVLTVLHQDWLNGKEYKCKVSNKALPAPIEKTISKAKGQPREPQVYTLPPSRDESGYWVSLTCLVKGFYPSDIVVEWESNGEPQYWAKTTPPVLDSDGSFFLYSKLTVSNWRWQLDDFSCSVMHEALHNHYTQKSLSLSPGK
B5: Fcab FS17-33-288 (designed binder)
chain: B4 chain with L194I
B6: Fcab FS17-33-296 (designed binder)
chain: B4 chain with L194V
B7: Fcab FS17-33-334 (designed binder)
chain: B4 chain with V153A
B8: Fcab FS17-33 with LALA mutation (pTT5-FS17-33AA) (designed binder)
chain: TCPPCPAPEAAGGPSVFLFPPKPKDTLMISRTPEVTCVVVDVSHEDPEVKFNWYVDGVEVHNAKTKPREEQYNSTYRVVSVLTVLHQDWLNGKEYKCKVSNKALPAPIEKTISKAKGQPREPQVYTLPPSRDEQSGYWVSLTCLVKGFYPSDIAVEWESNGQPENNYKTTPPVLDSDGSFFLYSKLTVSNWRWQMGDFSCSVMHEALHNHYTQKSLSLSPGK
B9: Fcab FS17-33-37 with LALA mutation (designed binder)
chain: B8 chain with S135V, G196D
notes: also called FS17-33-37AA

Tests used:
[1] = target: T1, Biotinylated hPD-L1-Fc-Avi (human, UniProt Q9NZQ7 19-238); experiment: cell-based RBA, blocking of hPD-L1-Fc-Avi binding to HEK293 hPD-1 cells
Procedure: (§1) The ability of the Fcabs and mock mAb² to block hPD-1/hPD-L1 and hPD-L1/hCD80 interactions was tested in cell-based Receptor Binding Assays (RBA). […] The mix was incubated for another hour with HEK293 cells overexpressing either hPD-1 or hCD80.

[2] = target: T2, Human PD-L1 expressed on cells (human, UniProt Q9NZQ7 19-290); experiment: flow cytometry, HEK293 cells overexpressing the target, anti-human Fc 488
T2 construct: also called cell-surface human PD-L1; hPD-L1
Procedure: (§2) Cell binding assays were performed by incubating Fcabs or mAb² proteins with either control HEK293 cells or HEK293 cells overexpressing hPD-L1 or cynomolgus PD-L1 cells for 1 hour at 4° C. Fcab/mAb binding was subsequently detected using an anti-human Fc 488 detection antibody. Fluorescent signal intensities were measured using a FACS canto.

[3] = target: T3, Cynomolgus PD-L1 expressed on HEK 293 cells (cynomolgus, UniProt Q9NZQ7 19-290 (human entry)); experiment: as above
T3 construct: also called cell-expressed cynomolgus PD-L1
Procedure: as §2

[4] = target: T4, Monomeric His-tagged human PD-L1 (Acro biosystems PD1-H5229) (human, UniProt Q9NZQ7 19-238); experiment: SPR Biacore T200, mAb^2 captured by anti-Fab on CM5, monomeric antigen in flow, 1:1 fit
T4 construct: also called hPD-L1-his; PD-L1-his

[5] = target: T5, Monomeric cynomolgus PD-L1 (Acro Biosciences PD1-C52H4) (cynomolgus, UniProt Q9NZQ7 19-238 (human entry)); experiment: as above
T5 construct: also called cynomolgus monomeric PD-L1

[6] = target: T1, Biotinylated hPD-L1-Fc-Avi; experiment: cell-based RBA, blocking of hPD-L1-Fc-Avi binding to HEK293 hCD80 cells; PD-L1 at 50 µg/mL
[7] = target: T2, Human PD-L1 expressed on cells; experiment: cell-based or functional assay
[8] = target: T2, Human PD-L1 expressed on cells; experiment: cell-based or functional assay; remark: listed apart in the source
[9] = target: T4, Monomeric His-tagged human PD-L1 (Acro …); experiment: SPR Biacore T200 as Example 5.1, anti-Fab capture, monomeric hPD-L1-his
Procedure: Fcab and mAb² binding to human PD-L1 was assessed by both BIAcore and in a cell binding assay. To measure the affinity of the clones to monomeric hPD-L1-his, the mAb² were captured using an anti-Fab antibody coated on a CM5 chip (GE 28-9582-20 AC) and Fcabs were captured using a Protein A chip (GE 29127556) using a Biacore T200 (GE). To minimize mass transport effects, the capture level was minimized to 200RU and a fast flow rate of 75 μl/min was used. […] The analysis of the data was done using the Biacore T200 evaluation software. Curves subtracted against a blank flow cell and a run with no antigen were analysed using a 1:1 fitting model with no bulk analysis and Rmax analysed locally.
The selected CH3 domain sequences were subcloned and expressed in “mock” (MSL109) mAb² format with the LALA mutation in the CH2 domain, as described in Example 4.2.1, for further screening.

[10] = target: T1, Biotinylated hPD-L1-Fc-Avi; experiment: cell-based RBA, blocking of hPD-L1-Fc-Avi binding to HEK293 hCD80 cells
Procedure: as §1

[11] = target: T4, Monomeric His-tagged human PD-L1 (Acro …); experiment: SPR Biacore T200, Fcab captured on protein A chip, monomeric antigen in flow, 1:1 fit
[12] = target: T5, Monomeric cynomolgus PD-L1 (Acro …); experiment: as above
[13] = target: T2, Human PD-L1 expressed on cells; experiment: cell-based blocking of biotinylated PD-1 Fc binding to HEK 293 hPD-L1 cells, flow cytometry
Procedure: The blocking activity of the clones produced in Example 2.2.1 was analysed in a cell-based assay using HEK 293 cells overexpressing human PD-L1 (see 1.5 for development of the cell line). Briefly, HEK 293 cells expressing human PD-L1 were seeded at 1×10⁵ cells per well in a V-bottom 96-well plate in PBS. […] The plates were centrifuged at 1500 rpm for 3 minutes at 4° C. to pellet the cells. […] The plates were centrifuged at 1500 rpm for 3 minutes at 4° C. to pellet the cells, supernatant was discarded and the cells were resuspended in PBS. Streptavidin conjugated to Alexa 488 was diluted 1:1000 in PBS and 100 μl was added to the wells for 30 minutes at 4° C. The plates were centrifuged at 1500 rpm for 3 minutes at 4° C. to pellet the cells, supernatant discarded and the cells were resuspended in PBS with DAPI. The plate was read on FACS Canto (BD Bioscience) and the data analysed using FlowJoX.

[14] = target: T4, Monomeric His-tagged human PD-L1 (Acro …); experiment: SPR Biacore, captured on protein A, monomeric PD-L1-his in flow, 1:1 fit
Procedure: The monomeric PD-L1-his human antigen was flowed over the chip in titrating concentrations at a high flow rate to minimise mass transport limitations. The KDS were measured using a 1:1 fitting analysis with no refractive index correction and Rₘₐₓ set to local.

T3 sequence (Q9NZQ7 other isoform, or with tags, fused parts or gaps limits assumed): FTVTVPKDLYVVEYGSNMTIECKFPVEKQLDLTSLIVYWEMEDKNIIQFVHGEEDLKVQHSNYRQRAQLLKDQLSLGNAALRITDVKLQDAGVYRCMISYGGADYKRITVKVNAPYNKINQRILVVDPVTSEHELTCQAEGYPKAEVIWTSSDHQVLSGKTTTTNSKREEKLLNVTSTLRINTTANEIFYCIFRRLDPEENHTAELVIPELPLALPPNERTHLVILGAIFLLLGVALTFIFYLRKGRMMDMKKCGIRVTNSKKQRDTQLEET
T2 sequence (Q9NZQ7 19-290 limits assumed): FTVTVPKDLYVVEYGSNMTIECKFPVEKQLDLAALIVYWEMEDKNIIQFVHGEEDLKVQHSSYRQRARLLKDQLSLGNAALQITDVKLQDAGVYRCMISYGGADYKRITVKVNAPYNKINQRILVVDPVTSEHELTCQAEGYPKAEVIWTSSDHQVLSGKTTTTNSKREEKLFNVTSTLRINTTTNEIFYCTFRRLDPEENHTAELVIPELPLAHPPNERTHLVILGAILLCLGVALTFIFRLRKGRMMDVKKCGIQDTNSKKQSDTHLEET
T5 sequence (Q9NZQ7 other isoform, or with tags, fused parts or gaps limits assumed): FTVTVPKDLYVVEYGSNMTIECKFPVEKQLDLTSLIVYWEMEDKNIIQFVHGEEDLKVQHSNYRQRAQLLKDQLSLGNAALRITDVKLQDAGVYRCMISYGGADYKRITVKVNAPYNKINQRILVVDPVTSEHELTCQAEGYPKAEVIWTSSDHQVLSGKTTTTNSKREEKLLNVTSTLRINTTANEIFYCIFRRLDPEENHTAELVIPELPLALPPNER
T1 sequence (Q9NZQ7 19-238 limits assumed): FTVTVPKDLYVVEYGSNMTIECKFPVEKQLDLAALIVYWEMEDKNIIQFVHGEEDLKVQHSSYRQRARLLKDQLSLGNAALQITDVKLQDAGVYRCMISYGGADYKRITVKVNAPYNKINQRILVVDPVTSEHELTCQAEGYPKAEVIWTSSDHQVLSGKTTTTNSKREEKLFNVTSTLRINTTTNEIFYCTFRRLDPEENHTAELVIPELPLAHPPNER
T4 sequence (Q9NZQ7 19-238 limits assumed): as above

Binder | EC50 [1] [nM] | Kd [2] [nM] | Kd [3] [nM] | EC50 [10] [nM] | Kd [11] [nM] | Kd [12] [nM] | also measured
B1 | 1.96 | 7.88 | 3.6 | – | – | – | Kd [4]: 0.38 nM; Kd [5]: 0.6 nM; EC50 [6]: 194 nM
B2 | 0.92 | 11.7 | 4.52 | – | – | – | DO11.10 EC50 [7]: 4.83 nM; DO11.10 EC50 [8]: 8.28 nM; Kd [9]: 0.3 nM; koff [9]: 0.000329 s⁻¹; Kd [4]: 0.34 nM; Kd [5]: 0.5 nM; EC50 [6]: 190 nM
B3 | – | – | – | – | – | – | DO11.10 EC50 [7]: 3.25 nM; Kd [9]: 0.36 nM; koff [9]: 0.00036 s⁻¹
B4 | 10.1 | 1 | 0.44 | 9.2 | 0.54 | 0.66 | –
B5 | 2.8 | 2.5 | 2.6 | 0.79 | 1.6 | 2.1 | –
B6 | 9 | 1 | 0.5 | 8.8 | 0.73 | 0.87 | –
B7 | 0.99 | 2.06 | 0.68 | 0.55 | 1.93 | 2.18 | –
B8 | – | – | – | – | – | – | IC50 [13]: 17.7 nM
B9 | – | – | – | – | – | – | Kd [14]: 270 nM; koff [14]: 0.02 s⁻¹; kon [14]: 76000 M⁻¹ s⁻¹; IC50 [13]: 8.1 nM
